From US20190367631A1 (Regeneron, published 2019)

T1: monkey MSR1 extracellular domain expressed with a N-terminal hexahistidine-myc-myc tag (HMM-mfMSR1) (monkey (Macaca fascicularis))
T1 chain: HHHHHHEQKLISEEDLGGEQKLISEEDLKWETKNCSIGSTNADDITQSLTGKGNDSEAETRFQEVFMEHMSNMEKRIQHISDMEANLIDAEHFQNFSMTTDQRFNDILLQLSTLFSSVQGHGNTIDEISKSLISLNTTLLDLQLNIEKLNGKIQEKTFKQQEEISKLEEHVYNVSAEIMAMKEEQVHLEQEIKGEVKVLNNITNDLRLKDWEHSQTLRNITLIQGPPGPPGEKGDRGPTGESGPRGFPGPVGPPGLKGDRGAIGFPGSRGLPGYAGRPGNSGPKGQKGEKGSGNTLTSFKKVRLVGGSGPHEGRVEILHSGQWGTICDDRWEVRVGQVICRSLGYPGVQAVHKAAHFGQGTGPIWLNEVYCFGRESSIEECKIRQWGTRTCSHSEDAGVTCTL

T2: human MSR1 extracellular domain expressed with a N-terminal nonahistidine tag (His9-hMSR1); R&D Systems, Cat … (human, UniProt P21757 77-451)
T2 construct: extracellular domain; also called His-hMSR1; 9xHis-hMSR1; not shown: N-terminal nonahistidine tag
T2 sequence (looked up): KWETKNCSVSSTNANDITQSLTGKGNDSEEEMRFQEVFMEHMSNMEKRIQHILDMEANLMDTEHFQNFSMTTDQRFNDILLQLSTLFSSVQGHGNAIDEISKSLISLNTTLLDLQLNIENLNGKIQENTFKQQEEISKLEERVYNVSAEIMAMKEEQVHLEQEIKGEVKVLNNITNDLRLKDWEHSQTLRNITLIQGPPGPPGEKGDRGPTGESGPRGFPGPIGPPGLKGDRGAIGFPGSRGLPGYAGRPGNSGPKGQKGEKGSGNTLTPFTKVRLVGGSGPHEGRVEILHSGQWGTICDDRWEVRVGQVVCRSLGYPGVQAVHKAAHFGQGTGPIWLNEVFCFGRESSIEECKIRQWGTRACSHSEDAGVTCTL

T3: mouse MSR1 extracellular domain expressed with a N-terminal nonahistidine tag (His9-mMSR1); R&D Systems, Cat … (mouse, UniProt P30204 79-458)
T3 construct: extracellular domain; not shown: N-terminal nonahistidine tag
T3 sequence (looked up): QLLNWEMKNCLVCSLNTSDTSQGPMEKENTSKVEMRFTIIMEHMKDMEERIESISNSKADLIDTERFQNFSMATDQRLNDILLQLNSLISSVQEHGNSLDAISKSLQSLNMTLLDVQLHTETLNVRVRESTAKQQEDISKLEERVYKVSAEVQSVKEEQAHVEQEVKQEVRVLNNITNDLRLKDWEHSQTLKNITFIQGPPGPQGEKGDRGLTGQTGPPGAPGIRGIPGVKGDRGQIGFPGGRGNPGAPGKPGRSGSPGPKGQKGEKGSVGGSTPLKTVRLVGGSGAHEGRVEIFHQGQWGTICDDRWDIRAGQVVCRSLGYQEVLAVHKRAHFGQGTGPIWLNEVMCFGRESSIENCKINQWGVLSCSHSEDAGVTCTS


Key:
[1] = target: T1, monkey MSR1 extracellular domain …; test: SPR Biacore, 25 C, antibody captured;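 also: rates from 1:1 fit with mass transport limitation of real-time sensorgrams, HEPES-buffered saline with EDTA and Tween-20 at pH 7.4, KD and t½ derived from the kinetic rates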
[2] = target: T2, human MSR1 extracellular domain …; test: SPR Biacore, 25 C, antibody captured;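 also: rates from 1:1 fit with mass transport limitation of real-time sensorgrams, HEPES-buffered saline with EDTA and Tween-20 at pH 7.4, KD and t½ derived from the kinetic rates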
[3] = target: T3, mouse MSR1 extracellular domain …; test: BLI Octet, 25 C, antibody captured
[4] = target: T1, monkey MSR1 extracellular domain …; test: SPR Biacore, 37 C, antibody captured
Method: (§1) Binding affinities and kinetic constants of human anti-MSR1 antibodies for different MSR1 reagents were determined by real-time surface plasmon resonance (Biacore 4000). All binding studies were performed in 10 mM HEPES, 150 mM NaCl, 3 mM EDTA, and 0.05% v/v Surfactant Tween-20, pH 7.4 (HBS-ET) running buffer at 25° C. and 37° C.
(§2) The association rate (kₐ) and dissociation rate (kd) were determined by fitting the real-time binding sensorgrams to a 1:1 binding model with mass transport limitation using Scrubber 2.0c curve-fitting software. Binding dissociation equilibrium constant (KD) and dissociative half-life (t½) were calculated from the kinetic rates as:

[5] = target: T2, human MSR1 extracellular domain …; test: SPR Biacore, 37 C, antibody captured
Method: as §1, §2

| Kd [1] | t½ [1] | Kd [2] | t½ [2] | binding result [3] | Kd [4] | t½ [4] | Kd [5] | t½ [5] | koff [1] | kon [1] | koff [2] | kon [2] | koff [4] | kon [4] | koff [5] | kon [5] | Binder |
| --- | --- | --- | --- | --- | --- | --- | --- | --- | --- | --- | --- | --- | --- | --- | --- | --- | --- |
| 6.81 nM | 5 min | 0.406 nM | 94 min | no binding (tested: 50 nM) | 3.97 nM | 4 min | 1.16 nM | 15 min |  |  |  |  |  |  |  |  | H1H27756P-N297Q (antibody, V domains shown, Human IgG1 Fc with N297Q point mutation) VH: QVQLVESGGGVVQPGRSLRLSCAASGFTFSNYDMHWVRQAPGKGLEWMAVISYDGINKYYADSVKGRFTISRDNSKNTLYLQMNSLRAEDTAVYYCAKGTYSWYFDLWGRGTLVTVSS VL: not shown |
| 1.93 nM | 16 min | 2 nM | 13 min | no binding (tested: 50 nM) |  | 7 min | 1.74 nM | 6 min |  |  |  |  |  |  |  |  | H1H27760P-N297Q (antibody, V domains shown, Human IgG1 Fc with N297Q; tied by the numerical identifier; also called H1H27760P2-N297Q; H1H27760P2) VH: EVQLVESGGGLVQPGRSLRLSCAASGFTFDAYAMHWVRQAPGKGLEWVSGISWNSGSIGYADSVKGRFTISRDNAKNSLYLQMNSLREEDTALYYCAKDKILELYYYGMDVWGQGTTVTVSS VL: not shown |
| 1.59 nM | 6 min | 1.85 nM | 6 min | no binding (tested: 50 nM) | 0.698 nM | 6 min | 0.64 nM | 6 min | 0.00199 s⁻¹ | 1.25e+06 M⁻¹ s⁻¹ | 0.00183 s⁻¹ | 989000 M⁻¹ s⁻¹ | 0.00197 s⁻¹ | 2.82e+06 M⁻¹ s⁻¹ | 0.00196 s⁻¹ | 3.06e+06 M⁻¹ s⁻¹ | H1H27762P-N297Q (antibody, V domains shown, Human IgG1 Fc with N297Q; tied by the numerical identifier; also called H1H27762P2-N297Q; H1H27762P2) VH: QVQLVQSGAEVKKPGSSVKVSCKASGGTFSRYDISWVRQAPGQGLEWMGGIIPIFGTSNYAQKFQGRVTITTDESTSTVYMELSSLRSEDTAVYYCARGGRYGWFDPWGQGTLVTVSS VL: not shown |
| 2.2 nM | 13 min | 2.03 nM | 9 min | no binding (tested: 50 nM) | 1.28 nM | 6 min | 2.24 nM | 5 min | 0.000919 s⁻¹ | 417000 M⁻¹ s⁻¹ | 0.00122 s⁻¹ | 599000 M⁻¹ s⁻¹ | 0.00188 s⁻¹ | 1.46e+06 M⁻¹ s⁻¹ | 0.0023 s⁻¹ | 1.03e+06 M⁻¹ s⁻¹ | H1H27759P-N297Q (antibody, V domains shown, Human IgG1 Fc with N297Q; tied by the numerical identifier; also called H1H27759P2-N297Q; H1xH27759P2) VH: EVQLVESGGGFVQPGGSLRLSCAASGFTFSSYAMSWVRQAPGKGLEWVSAISGTGSNTYYADSVKGRFTISRDNSKNTLYLQMNSLRAEDTAVYYCAKDRVTTVTYYFDYWGQGTLVTVSS VL: not shown |
| 6.88 nM | 4 min | 2.64 nM | 10 min | no binding (tested: 50 nM) | 3.37 nM | 4 min | 1.74 nM | 6 min | 0.00291 s⁻¹ | 423000 M⁻¹ s⁻¹ | 0.00111 s⁻¹ | 420000 M⁻¹ s⁻¹ | 0.0032 s⁻¹ | 949000 M⁻¹ s⁻¹ | 0.0019 s⁻¹ | 1.09e+06 M⁻¹ s⁻¹ | H1H27734P-N297Q (antibody, V domains shown, Human IgG1 Fc with N297Q point mutation) VH: EVQLVESRGGLVQPGGSLRLSCAASGFTFSSYAMSWVRQAPGKGLEWVSAISGSGGSTFYADSVKGRFTISRDNSKNTVYLQMNSLRAEDTAVYYCAKALVLRFLEWLGDYWGQGTLVTVSS VL: DIQMTQSPSTLSASVGDRVTITCRASQSISSWLAWFQQKPGKAPKLLIYKASSLESGVPSRFSGSGSGTEFTLTISSLQPDDFATYYCQQYKSYWTFGQGTKVEIKR |
| 0.41 nM | 80 min | 2.74 nM | 11 min | no binding (tested: 50 nM) | 0.374 nM | 14 min | 3.72 nM | 4 min | 0.000144 s⁻¹ | 352000 M⁻¹ s⁻¹ | 0.00103 s⁻¹ | 375000 M⁻¹ s⁻¹ | 0.000842 s⁻¹ | 2.25e+06 M⁻¹ s⁻¹ | 0.00288 s⁻¹ | 776000 M⁻¹ s⁻¹ | H1H27739P-N297Q (antibody, V domains shown, Human IgG1 Fc with N297Q point mutation) VH: EVQLVESGGGLVQPGGSLRLSCTASGFTFSSYAMSWVRQAPGKGLEWVSAISGTGSSTYFTDSVKGRFAISRDNSKNTLYLQMNSLRAEDTAVYYCAKDGEWLSTVTLFDYWGQGTLVTVSS VL: EIVMTQSPATLSVSPGERATLSCRASQSVSSNLAWYQQKPGQAPRLLIYGASTRATGIPARFSGSGSGTDFTLTISSLQSEDFALYYCQQYFIWPPHPTFGPGTKVDIKR |
| 0.477 nM | 247 min | 0.174 nM | 515 min | no binding (tested: 50 nM) | 0.674 nM | 62 min | 0.462 nM | 88 min | 4.69e-05 s⁻¹ | 98200 M⁻¹ s⁻¹ | 2.24e-05 s⁻¹ | 129000 M⁻¹ s⁻¹ | 0.000187 s⁻¹ | 278000 M⁻¹ s⁻¹ | 0.000132 s⁻¹ | 286000 M⁻¹ s⁻¹ | H1H27731P-N297Q (antibody, V domains shown, Human IgG1 Fc with N297Q point mutation) VH: QLQLQESGPGLVKPSETLSLTCTVSGGSISRISYYWGWIRQPPGKGLEWIGSIYDSGSTYYNPSLKSRVTISIDTSKNQFSLKLSSVTAADTAVYYCVRYSSSSAFAFDYWGQGTLVTVSS VL: DIQMTQSPSSVSASVGDRVTITCRASQGISSWLAWYQQKPGKAPKLLIYAASSLQSGVPSRFSGSGSGTDFTLTISSLQPEDFATYYCQQANSFPFTFGPGTKVDIKR |
| 3.78 nM | 13 min |  |  | no binding (tested: 50 nM) | 3.47 nM | 5 min | 5.37 nM | 4 min | 0.000874 s⁻¹ | 231000 M⁻¹ s⁻¹ |  |  | 0.00228 s⁻¹ | 657000 M⁻¹ s⁻¹ | 0.00276 s⁻¹ | 513000 M⁻¹ s⁻¹ | H1H27747P-N297Q (antibody, V domains shown, Human IgG1 Fc with N297Q point mutation) VH: QVQLVESGGAVVQPGRSLRLSCAASGFTFSYYGMHWVRQAPGKGLEWVAVISYDGSKKYYADSVKGRFTISRDNSKNTLYLQMNSLRAEDTAVYYCAKDLTVDFYYGMDVWGQGTTVTVSS VL: DIQMTQSPSSVSASVGDRVTITCRASQGISSWLAWYQQKPGKAPKLLIYATSSLQSGAPSRFSGSGSGTDFTLTISSLQPEDFATYFCQQANSFPYTFGQGTKLEIKR |
| 7.9 nM | 5 min | 5.45 nM | 11 min | no binding (tested: 50 nM) | 8.58 nM | 3.3 min | 8.53 nM | 6 min | 0.00212 s⁻¹ | 269000 M⁻¹ s⁻¹ | 0.00107 s⁻¹ | 197000 M⁻¹ s⁻¹ | 0.00349 s⁻¹ | 407000 M⁻¹ s⁻¹ | 0.00204 s⁻¹ | 239000 M⁻¹ s⁻¹ | H1H27729P-N297Q (antibody, V domains shown, Human IgG1 Fc with N297Q point mutation) VH: QVQLVESGGGLVKPGGSLRLSCAASGFIFSDYYMSWIRQAPGKGLEWVSYISSSGTTIYGDSVKGRFTMSRDNAKNSLYLQMNSLRAEDTAVYYCARNYALFDYWGQGTLVTVSS VL: DIQMTQSPSSLSASVGDRVTITCQASQDISKYLNWYQQKPGKAPKLLIYYTSNLETGVPSRFSGSGSGTDFTFTISSLQPEDIATYYCHQSDYLPFTFGPGTKVDIKR |
| 1.01 nM | 15 min | 0.172 nM | 38 min | no binding (tested: 50 nM) | 1.55 nM | 6 min |  |  | 0.000749 s⁻¹ | 744000 M⁻¹ s⁻¹ | 0.000305 s⁻¹ | 1.78e+06 M⁻¹ s⁻¹ | 0.0018 s⁻¹ | 1.17e+06 M⁻¹ s⁻¹ |  |  | H1H27751P-N297Q (antibody, V domains shown, Human IgG1 Fc with N297Q point mutation) VH: EVQLVESGGGLVQPGGSLRLSCAASGFTFSNYAMHWVRQAPGKGLEYVSAISSNGGSTYYADSVKGRITISRDNSKNTLYLQMGSLRAEDMAVYYCARGRPYYYYFGMDVWGQGTTVTVSS VL: not shown |
